Reference: US20140327158A1 (E3X BIO, published 2014)

Molecular target: T1, HA-UbVS (HA-tagged ubiquitin vinyl sulfone activity probe) (UniProt P0CG48 1-75, C-terminal vinyl sulfone (VS) electrophilic trap)
T1 construct: Bought from Boston Biochem. Reacts covalently with the active site cysteine after specific recognition of Ub; also called Ub-vinyl sulfone
Test: HA-UbVS activity probe labeling, gel shift
Excerpt: Reactions were terminated by the addition of SDS loading buffer.

B1: Parkin RBR (residues 238-465) (enzyme, UniProt O60260 238-465, looked up)
chain: CITCTDVRSPVLVFQCNSRHVICLDCFHLYCVTRLNDRQFVHDPQLGYSLPCVAGCPNSLIKELHHFRILGEEQYNRYQQYGAEECVLQMGGVLCPRPGCGAGLLPEPDQRKVTCEGGNGLGCGFAFCRECKEAYHEGECSAVFEASGTTTQAYRVDERAAEQARWEAASKETIKKTTKPCPRCHVPVEKNGGCMHMKCPQPQCRLEWCWNCGCEWNRVCMGDHWFDV
notes: range 238-465; also called RBR domain of Parkin
Question: Does B1 bind?
Answer: Result: binds
